Reference: paper PMC3923297, “Structural basis for microtubule recognition by the human kinetochore Ska complex” (Nature Communications, 2014)
Values joined by “and” are separate entries in the source; they are usually repeats but may differ in a detail not shown here. Identical values can stand only once.

Tests used:
[1] = molecular target: microtubules polymerised from tubulin (α1B and β2B tubulin), P81947;Q6B856; test: MT cosedimentation assay; details: 3 μM Ska and 6 μM vinblastine spirals; parent: est. 0.60; read off a plot
[2] = molecular target: T1, microtubules polymerised from tubulin (α1B and β2B tubulin) (UniProt P81947 1-451; Q6B856 1-445); test: co-sedimentation; MT-pelleting assay: taxol-stabilized MTs or subtilisin-treated MTs (0-12 μM tubulin dimer) with 1 or 3 μM protein, 10 min at room temperature, BRB80 (80 mM PIPES pH 6.9, 1 mM EGTA, 1 mM MgCl2) with 100 mM NaCl, 4 mM DTT, 20 μM taxol; spun through a glycerol cushion, 25 °C; SDS-PAGE, Coomassie, ImageJ. Kd: 1 μM Ska and 0-12 μM MTs; single points: 3 μM Ska (or 1 μM) and 6 μM MTs; details: both partners purified
T1 construct: α-tubulin, printed as α1B tubulin; β-tubulin, printed as β2B tubulin; Polymer of α/β-tubulin dimers; The same tubulin stood as taxol-stabilized (straight) MTs and as vinblastine spirals (curved); the assay tells them apart; brain tubulin is a mix of isotypes; also called MTs; taxol-stabilized MTs; source: bought: Cytoskeleton Inc. (tubulin), polymerised; taxol-stabilized MTs or vinblastine spirals
T1 sequence (P81947 whole entry, chain 1 of 2): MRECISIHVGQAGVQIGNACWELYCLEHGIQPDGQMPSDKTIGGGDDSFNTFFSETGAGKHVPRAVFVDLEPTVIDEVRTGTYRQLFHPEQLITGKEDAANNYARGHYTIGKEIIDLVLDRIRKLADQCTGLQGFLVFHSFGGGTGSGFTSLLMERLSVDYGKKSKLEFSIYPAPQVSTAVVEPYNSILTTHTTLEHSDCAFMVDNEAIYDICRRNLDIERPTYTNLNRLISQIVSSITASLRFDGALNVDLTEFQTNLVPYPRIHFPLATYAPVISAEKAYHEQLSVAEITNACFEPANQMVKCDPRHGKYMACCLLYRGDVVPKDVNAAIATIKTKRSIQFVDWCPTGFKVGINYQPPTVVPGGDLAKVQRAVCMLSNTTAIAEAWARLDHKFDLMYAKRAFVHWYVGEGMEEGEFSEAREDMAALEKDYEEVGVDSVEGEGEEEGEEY
T1 sequence (Q6B856 whole entry, chain 2 of 2): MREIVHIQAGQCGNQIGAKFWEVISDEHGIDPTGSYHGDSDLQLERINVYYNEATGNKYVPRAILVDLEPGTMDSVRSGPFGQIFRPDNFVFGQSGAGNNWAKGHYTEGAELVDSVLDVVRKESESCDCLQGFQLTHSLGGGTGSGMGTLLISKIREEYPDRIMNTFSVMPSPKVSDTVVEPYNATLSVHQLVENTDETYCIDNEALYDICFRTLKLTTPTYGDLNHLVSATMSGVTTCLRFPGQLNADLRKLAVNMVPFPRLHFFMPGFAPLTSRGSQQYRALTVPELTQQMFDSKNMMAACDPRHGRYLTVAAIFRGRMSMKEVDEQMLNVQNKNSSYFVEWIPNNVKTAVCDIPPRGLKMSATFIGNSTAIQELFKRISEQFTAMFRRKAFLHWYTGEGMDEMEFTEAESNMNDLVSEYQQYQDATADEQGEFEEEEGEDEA

response (bound fraction) [1]: 0.63 and 0.21 and 0.31
Kd [2]: 2900 ± 600 nM
B1: human Ska complex (Ska1, Ska2, Ska3), wild type, full length (complex)
chain 1: MASSDLEQLCSHVNEKIGNIKKTLSLRNCGQEPTLKTVLNKIGDEIIVINELLNKLELEIQYQEQTNNSLKELCESLEEDYKDIEHLKENVPSHLPQVTVTQSCVKGSDLDPEEPIKVEEPEPVKKPPKEQRSIKEMPFITCDEFNGVPSYMKSRLTYNQINDVIKEINKAVISKYKILHQPKKSMNSVTRNLYHRFIDEETKDTKGRYFIVEADIKEFTTLKADKKFHVLLNILRHCRRLSEVRGGGLTRYVIT
chain 2: MEAEVDKLELMFQKAESDLDYIQYRLEYEIKTNHPDSASEKNPVTLLKELSVIKSRYQTLYARFKPVAVEQKESKSRICATVKKTMNMIQKLQKQTDLELSPLTKEEKTAAEQFKFHMPDL
chain 3: MDPIRSFCGKLRSLASTLDCETARLQRALDGEESDFEDYPMRILYDLHSEVQTLKDDINILLDKARLENQEGIDFIKATKVLMEKNSMDIMKIREYFQKYGYSPRVKKNSVHEQEAINSDPELSNCENFQKTDVKDDLSDPPVASSCISEKSPRSPQLSDFGLERYIVSQVLPNPPQAVNNYKEEPVIVTPPTKQSLVKVLKTPKCALKMDDFECVTPKLEHFGISEYTMCLNEDYTMGLKNARNNKSEEAIDTESRLNDNVFATPSPIIQQLEKSDAEYTNSPLVPTFCTPGLKIPSTKNSIALVSTNYPLSKTNSSSNDLEVEDRTSLVLNSDTCFENLTDPSSPTISSYENLLRTPTPPEVTKIPEDILQLLSKYNSNLATPIAIKAVPPSKRFLKHGQNIRDVSNKEN
notes: Ska1, human; Ska2, human; Ska3, human, V58I as cloned; Ska3 V58I is printed without explanation; TEV-cleavable tags removed in solution; also called WT Ska complex; FL Ska complex; source: E. coli BL21 Gold, co-expressed, purified (glutathione sepharose, size-exclusion chromatography); copies: 2 + 2 + 2
